# Laboratory results reported in patent US20250320281A1.
# Tests used:
# Experiment in all cases: cell-based or functional assay
# [1] = target: HIV-1 92RW020 envelope glycoprotein (Env) on pseudovirus (HIV-1)
# [2] = target: HIV-1 92TH021 envelope glycoprotein (Env) on pseudovirus (HIV-1)
# [3] = target: HIV-1 JRCSF envelope glycoprotein (Env) on pseudovirus (HIV-1) (UniProt P20871)
# [4] = target: HIV-1 92UG024 envelope glycoprotein (Env) on pseudovirus (HIV-1)
# [5] = target: HIV-1 MGRM-D-018 envelope glycoprotein (Env) on pseudovirus (HIV-1)
# [6] = target: HIV-1 JRFL envelope glycoprotein (Env) on pseudovirus (HIV-1)
# [7] = target: HIV-1 92UG005 envelope glycoprotein (Env) on pseudovirus (HIV-1)
# [8] = target: HIV-1 APV13 envelope glycoprotein (Env) on pseudovirus (HIV-1)
# [9] = target: HIV-1 93IN905 envelope glycoprotein (Env) on pseudovirus (HIV-1)
# [10] = target: HIV-1 MGRM-A-010 envelope glycoprotein (Env) on pseudovirus (HIV-1)
# [11] = target: aMLV envelope on pseudovirus (negative control virus)
# [12] = target: HIV-1 APV6 envelope glycoprotein (Env) on pseudovirus (HIV-1)
# [13] = target: HIV-1 94UG103 envelope glycoprotein (Env) on pseudovirus (HIV-1)
# [14] = target: HIV-1 MGRM-C-028 envelope glycoprotein (Env) on pseudovirus (HIV-1)
# [15] = target: HIV-1 NL43 envelope glycoprotein (Env) on pseudovirus (HIV-1)
# [16] = target: HIV-1 MGRM-AG-005 envelope glycoprotein (Env) on pseudovirus (HIV-1)
# [17] = target: HIV-1 93UG077 envelope glycoprotein (Env) on pseudovirus (HIV-1)
# [18] = target: HIV-1 APV17 envelope glycoprotein (Env) on pseudovirus (HIV-1)
# [19] = target: HIV-1 MGRM-C-026 envelope glycoprotein (Env) on pseudovirus (HIV-1)
# [20] = target: HIV-1 MGRM-C-027 envelope glycoprotein (Env) on pseudovirus (HIV-1)
# [21] = target: HIV-1 92BR020 envelope glycoprotein (Env) on pseudovirus (HIV-1)
# [22] = target: HIV-1 MGRM-D-001 envelope glycoprotein (Env) on pseudovirus (HIV-1)
# [23] = target: HIV-1 CMU02 envelope glycoprotein (Env) on pseudovirus (HIV-1)
binder,measurement,setting,value
"PGT-136 (5329_C19; 5366_P21) human monoclonal anti-HIV-1 antibody (antibody, V domains shown) VH: QLQLQESGPGLVKPSETLSLTCTVSGGSMRGTDWGENDFHYGWIRQSSAKGLEWIGSIHWRGRTTHYKTSFRSRATLSIDTSNNRFSLTFSFVTAADTAVYYCARHKYHDIFRVVPVAGWFDPWGQGLLVTVSS VL: EIVMTQSPPTLSVSPGETATLSCRASQNVKNNLAWYQLKPGQAPRLLIFDASSRAGGIPDRFSGSGYGTDFTLTVNSVQSEDFGDYFCQQYEEWPRTFGQGTKVDIK",neutralization IC50,[1],0.738 mg/L
same,neutralization IC80,[1],> 10 mg/L
same,neutralization IC90,[1],> 10 mg/L
same,neutralization IC95,[1],> 10 mg/L
same,neutralization IC50,[2],> 10 mg/L
same,neutralization IC80,[2],> 10 mg/L
same,neutralization IC90,[2],> 10 mg/L
same,neutralization IC95,[2],> 10 mg/L
same,neutralization IC50,[3],> 10 mg/L
same,neutralization IC80,[3],> 10 mg/L
same,neutralization IC90,[3],> 10 mg/L
same,neutralization IC95,[3],> 10 mg/L
same,neutralization IC50,[4],0.0915 mg/L
same,neutralization IC80,[4],0.619 mg/L
same,neutralization IC90,[4],1.96 mg/L
same,neutralization IC95,[4],5.97 mg/L
same,neutralization IC50,[5],> 10 mg/L
same,neutralization IC80,[5],> 10 mg/L
same,neutralization IC90,[5],> 10 mg/L
same,neutralization IC95,[5],> 10 mg/L
same,neutralization IC50,[6],> 10 mg/L
same,neutralization IC80,[6],> 10 mg/L
same,neutralization IC90,[6],> 10 mg/L
same,neutralization IC95,[6],> 10 mg/L
same,neutralization IC50,[7],> 10 mg/L
same,neutralization IC80,[7],> 10 mg/L
same,neutralization IC90,[7],> 10 mg/L
same,neutralization IC95,[7],> 10 mg/L
same,neutralization IC50,[8],> 10 mg/L
same,neutralization IC80,[8],> 10 mg/L
same,neutralization IC90,[8],> 10 mg/L
same,neutralization IC95,[8],> 10 mg/L
same,neutralization IC50,[9],0.0135 mg/L
same,neutralization IC80,[9],0.0623 mg/L
same,neutralization IC90,[9],0.156 mg/L
same,neutralization IC95,[9],0.379 mg/L
same,neutralization IC50,[10],> 10 mg/L
same,neutralization IC80,[10],> 10 mg/L
same,neutralization IC90,[10],> 10 mg/L
same,neutralization IC95,[10],> 10 mg/L
same,neutralization IC50,[11],> 10 mg/L
same,neutralization IC80,[11],> 10 mg/L
same,neutralization IC90,[11],> 10 mg/L
same,neutralization IC95,[11],> 10 mg/L
same,neutralization IC50,[12],> 10 mg/L
same,neutralization IC80,[12],> 10 mg/L
same,neutralization IC90,[12],> 10 mg/L
same,neutralization IC95,[12],> 10 mg/L
same,neutralization IC50,[13],> 10 mg/L
same,neutralization IC80,[13],> 10 mg/L
same,neutralization IC90,[13],> 10 mg/L
same,neutralization IC95,[13],> 10 mg/L
same,neutralization IC50,[14],> 10 mg/L
same,neutralization IC80,[14],> 10 mg/L
same,neutralization IC90,[14],> 10 mg/L
same,neutralization IC95,[14],> 10 mg/L
same,neutralization IC50,[15],> 10 mg/L
same,neutralization IC80,[15],> 10 mg/L
same,neutralization IC90,[15],> 10 mg/L
same,neutralization IC95,[15],> 10 mg/L
same,neutralization IC50,[16],> 10 mg/L
same,neutralization IC80,[16],> 10 mg/L
same,neutralization IC90,[16],> 10 mg/L
same,neutralization IC95,[16],> 10 mg/L
same,neutralization IC50,[17],> 10 mg/L
same,neutralization IC80,[17],> 10 mg/L
same,neutralization IC90,[17],> 10 mg/L
same,neutralization IC95,[17],> 10 mg/L
same,neutralization IC50,[18],> 10 mg/L
same,neutralization IC80,[18],> 10 mg/L
same,neutralization IC90,[18],> 10 mg/L
same,neutralization IC95,[18],> 10 mg/L
same,neutralization IC50,[19],0.0065 mg/L
same,neutralization IC80,[19],0.0285 mg/L
same,neutralization IC90,[19],0.0687 mg/L
same,neutralization IC95,[19],0.159 mg/L
same,neutralization IC50,[20],> 10 mg/L
same,neutralization IC80,[20],> 10 mg/L
same,neutralization IC90,[20],> 10 mg/L
same,neutralization IC95,[20],> 10 mg/L
same,neutralization IC50,[21],> 10 mg/L
same,neutralization IC80,[21],> 10 mg/L
same,neutralization IC90,[21],> 10 mg/L
same,neutralization IC95,[21],> 10 mg/L
same,neutralization IC50,[22],> 10 mg/L
same,neutralization IC80,[22],> 10 mg/L
same,neutralization IC90,[22],> 10 mg/L
same,neutralization IC95,[22],> 10 mg/L
same,neutralization IC50,[23],> 10 mg/L
same,neutralization IC80,[23],> 10 mg/L
same,neutralization IC90,[23],> 10 mg/L
same,neutralization IC95,[23],> 10 mg/L
